Experimental data: PMC7347935, “STK11 (LKB1) missense somatic mutant isoforms promote tumor growth, motility and inflammation” (Communications Biology, 2020)

Molecular target: T1, LKB1^Y49D (human, UniProt Q15831 1-433, Y49D)
T1 sequence (looked up): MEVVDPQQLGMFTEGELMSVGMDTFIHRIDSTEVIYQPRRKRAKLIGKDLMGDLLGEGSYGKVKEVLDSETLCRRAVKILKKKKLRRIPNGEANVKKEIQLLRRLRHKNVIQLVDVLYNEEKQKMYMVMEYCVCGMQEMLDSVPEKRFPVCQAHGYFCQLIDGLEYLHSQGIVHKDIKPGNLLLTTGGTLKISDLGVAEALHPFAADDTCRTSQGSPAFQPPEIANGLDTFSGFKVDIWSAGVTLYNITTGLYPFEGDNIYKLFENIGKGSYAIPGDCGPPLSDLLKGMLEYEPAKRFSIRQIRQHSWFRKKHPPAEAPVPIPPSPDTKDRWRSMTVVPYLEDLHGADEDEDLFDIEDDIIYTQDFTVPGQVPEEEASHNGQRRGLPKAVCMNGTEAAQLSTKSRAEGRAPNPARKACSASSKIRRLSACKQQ
Assay: cell-based or functional assay

specific in vitro kinase activity towards NUAKtide peptide in the presence of STRADα, relative to LKB1^WT: ~30 % of LKB1^WT activity
B1: STRADα (natural protein, human (endogenous in A549 and G361), UniProt Q7RTN6 1-431, looked up)
chain: MSFLVSKPERIRRWVSEKFIVEGLRDLELFGEQPPGDTRRKTNDASSESIASFSKQEVMSSFLPEGGCYELLTVIGKGFEDLMTVNLARYKPTGEYVTVRRINLEACSNEMVTFLQGELHVSKLFNHPNIVPYRATFIADNELWVVTSFMAYGSAKDLICTHFMDGMNELAIAYILQGVLKALDYIHHMGYVHRSVKASHILISVDGKVYLSGLRSNLSMISHGQRQRVVHDFPKYSVKVLPWLSPEVLQQNLQGYDAKSDIYSVGITACELANGHVPFKDMPATQMLLEKLNGTVPCLLDTSTIPAEELTMSPSRSVANSGLSDSLTTSTPRPSNGDSPSHPYHRTFSPHFHHFVEQCLQRNPDARPSASTLLNHSFFKQIKRRASEALPELLRPVTPITNFEGSQSQDHSGIFGLVTNLEELEVDDWEF
